Literature values in PMC4519920.

Biological target: hsp70 (UniProt P0DMV8)
Chain of UniProt P0DMV8 (P0DMV8 2-641): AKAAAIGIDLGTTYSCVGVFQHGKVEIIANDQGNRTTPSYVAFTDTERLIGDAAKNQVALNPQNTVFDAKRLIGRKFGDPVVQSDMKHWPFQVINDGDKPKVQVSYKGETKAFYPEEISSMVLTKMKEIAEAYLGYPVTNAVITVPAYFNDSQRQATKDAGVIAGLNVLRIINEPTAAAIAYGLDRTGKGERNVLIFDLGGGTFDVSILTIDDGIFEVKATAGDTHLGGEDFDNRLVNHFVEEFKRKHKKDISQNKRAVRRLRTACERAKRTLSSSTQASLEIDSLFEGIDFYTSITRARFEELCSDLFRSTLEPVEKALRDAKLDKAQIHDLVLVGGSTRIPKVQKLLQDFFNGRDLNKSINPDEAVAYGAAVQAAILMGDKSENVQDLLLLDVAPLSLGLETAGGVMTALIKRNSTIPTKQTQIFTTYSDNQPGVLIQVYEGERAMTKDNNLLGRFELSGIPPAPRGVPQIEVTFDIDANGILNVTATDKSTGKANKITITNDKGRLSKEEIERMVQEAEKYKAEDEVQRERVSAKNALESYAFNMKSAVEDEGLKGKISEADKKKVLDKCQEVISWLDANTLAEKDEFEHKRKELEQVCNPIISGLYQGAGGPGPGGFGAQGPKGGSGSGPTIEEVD

In the case of “Nucleoprotein NTAIL Box2 (from UniProt P35972)”, the Kd is listed as 10 nM.
